Laboratory results published in patent US20130017188A1, “MODULATION OF SGK1 EXPRESSION IN TH17 CELLS TO MODULATE TH17-MEDIATED IMMUNE RESPONSES” (THE BRIGHAM AND WOMEN'S HOSPITAL, INC., priority 2009, published 2013).

Legend:
[1] = tested on: SGK1 expression in naïve CD4+ T cells; assay: SGK1 mRNA expression during T cell / TH17 differentiation; type: cell-based
Description: Naïve CD4+ T cells were cultured in TH17 differentiating condition (TGF-β plus IL-6) for 96 hours.
The correlation between the SGK1 expression level during T cell differentiation was previously unknown, so SGK1 mRNA level was first measured under different conditions during T cell differentiation (FIG. 1). […] IL-23, an IL-12 family cytokine, is essential for enhancing generation of TH17 cells.
The time dependent expression of SGK1 during TH17 differentiation was further examined by culturing naïve CD4+ T cells under TH17 differentiating conditions (TGF-β plus IL-6) for 96 hours. After 48 hours, TH17 cells were supplemented with IL-23 until the end of the culture period.

[2] = tested on: CD4+CD62L- cells (memory CD4 cells); assay: IL-17A and IL-17F expression in sorted memory CD4+CD62L- cells; type: cell-based, mice; conditions: anti-CD3 plus IL-23 vs anti-CD3 alone (FIG. 5)
Description: Wild-type and SGK1-deficient CD4+CD62L-cells (memory CD4 cells) were sorted and cultured with either anti-CD3 alone or anti-CD3 plus IL-23.
(§1) It has been shown that exposure of IL-23 is essential for expanding and stabilizing TH17 cells. […] It was next tested whether SGK1 is essential for IL-23-dependent expansion of TH17 cells. Naïve CD4+ T cells were sorted from wild-type and SGK1-deficient mice and were cultured under TH17 differentiation conditions, as described herein. After a first round of stimulation, cells were rested for two days in a cytokine-free medium. Two days later, cells were activated in the presence or absence of IL-23, and intracellular cytokine staining was performed for IL-17 expression. […] It was further tested whether IL-23 can expand sorted memory TH17 cells. Both wild-type and SGK1-deficient CD4^+CD62L^− cells were sorted and cultured with either anti-CD3 alone or anti-CD3 plus IL-23.

[3] = tested on: TH17 cells; assay: IL-23 dependent expansion of differentiated TH17 cells, intracellular cytokine staining for IL-17; type: cell-based, mice
Description: Naïve CD4+ T cells were sorted from wild-type and SGK1-deficient mice and cultured under TH17 differentiation conditions. After a first round of stimulation, the cells were rested for two days in cytokine free medium. Two days later, cells were activated in the presence or absence of IL-23, and intracellular cytokine staining was performed for IL-17.
as §1

“IL-6: STAT3-activating cytokine used with TGF-β for TH17 differentiation” was tested. Which “expression of SGK1 (mRNA)” value ([1]; IL-6 added together with TGF-β (FIG. 1)) did it give?
Its value is “further increased the expression SGK1”.

For TGF-β, which “expression level of SGK1 (mRNA)” value ([1]; T cell differentiation, TGF-β (FIG. 1)) is on record?
Its value is “upregulate the expression level of SGK1”.

B1: IL-23: an IL-12 family cytokine, essential for enhancing generation of TH17 cells (protein, UniProt Q9NPF7 20-189; P29460 23-328, looked up)
Interleukin-23 subunit alpha: RAVPGGSSPAWTQCQQLSQKLCTLAWSAHPLVGHMDLREEGDEETTNDVPHIQCGDGCDPQGLRDNSQFCLQRIHQGLIFYEKLLGSDIFTGEPSLLPDSPVGQLHASLLGLSQLLQPEGHHWETQQIPSLSPSQPWQRLLLRFKILRSLQAFVAVAARVFAHGAATLSP
Interleukin-12 subunit beta: IWELKKDVYVVELDWYPDAPGEMVVLTCDTPEEDGITWTLDQSSEVLGSGKTLTIQVKEFGDAGQYTCHKGGEVLSHSLLLLHKKEDGIWSTDILKDQKEPKNKTFLRCEAKNYSGRFTCWWLTTISTDLTFSVKSSRGSSDPQGVTCGAATLSAERVRGDNKEYEYSVECQEDSACPAAEESLPIEVMVDAVHKLKYENYTSSFFIRDIIKPDPPKNLQLKPLKNSRQVEVSWEYPDTWSTPHSYFSLTFCVQVQGKSKREKKDRVFTDKTSATVICRKNASISVRAQDRYYSSSWSEWASVPCS
How did the “expression of IL-17A and IL-17F” value ([2]; SGK1-deficient memory cells) turn out when B1 was run?
The value was “defective in inducing expression of IL-17A and IL-17F”.

What about the “expression of IL-17A and IL-17F” value ([2]; wild-type memory cells) of the same molecule?
The value was “clearly enhanced the expression of IL-17A and IL-17F”.

And the “expression of SGK1 (mRNA)” value ([1]; IL-23, further to TGF-β and IL-6 (FIG. 1))?
Its value is “further enhances the expression of SGK1”.

What about the “time dependent expression of SGK1” value ([1]; TH17 cells supplemented with IL-23 after 48 hours (FIG. 2)) of the same molecule?
Its value is “further induced SGK1 expression”.

And the “IL-17 expressing TH17 cells after re-activation with IL-23” value ([3]; SGK1-deficient TH17 cells, ~4% in absence of IL-23)?
The value was roughly 1%.

And the “IL-17 expressing TH17 cells after re-activation with IL-23” value ([3]; wild-type TH17 cells, 11.5% in absence of IL-23)?
The value was 13%.
